The DeepSol protein solubility set

Experiment: soluble on expression in E. coli; label from the status in PepcDB or PDB records

Sequence	soluble on expression in E. coli
GAGAYAYKTIKEDQKRYNERVMGLGLSPEEKQRRAIASATEGGSVPQIRAPSHVPFLLIGGGTAAFAAARSIRARDPGARVLIVSEDPELPYMRPPLSKELWFSDDPNVTKTLQFRQWNGKERSIYFQPPSFYVSAQDLPNIENGGVAVLTGKKVVHLDVRGNMVKLNDGSQITFEKCLIATGGTPRSLSAIDRAGAEVKSRTTLFRKIGDFRALEKISREVKSITVIGGGFLGSELACALGRKSQASGIEVIQLFPEKGNMGKILPQYLSNWTMEKVKREGVKVMPNAIVQSVGVSGGRLLIKLKDGRKVETDHIVTAVGLEPNVELAKTGGLEIDSDFGGFRVNAELQARSNIWVAGDAACFYDIKLGRRRVEHHDHAVVSGRLAGENMTGAAKPYWHQSMFWSDLGPDVGYEAIGLVDSSLPTVGVFAKATAQDNPKSATEQSGTGIRSESETESEASEITIPPSAPAVPQVPVEGEDYGKGVIFYLRDKVVVGIVLWNVFNRMPIARKIIKDGEQHEDLNEVAKLFNIHED	soluble
GAMAEEATFTANFKDTDLKSFIETVGANLNKTIIMGPGVQGAVSIRTMTPLNERQYYQLFLNLLEAQGYAVVPMENDVLKVVKSSAAKVEPLPLVGEGSDNYAGDEMVTKVVPVRNVSVRELAPILRQMIDSAGSGNVVNYDPSNVIMLTGRASVVERLTEVIQRVDHAGNRTEEVIPLDNASASEIARVLESLTKNSGENQPATLKSQIVADERTNSVIVSGDPATRDKMRRLIRRLDSE	soluble
GAMAMRIYYIGVFRSGGEKALELSEVKDLSQFGFFERSSVGQFMTFFAETVASRTGAGQRQSIEEGNYIGHVYARSEGICGVLITDKEYPVRPAYTLLNKILDEYLVAHPKEEWADVTETNDALKMKQLDTYISKYQDPSQADA	soluble
GAMGDIDERNIFFELFDRYKLDKFSTWSLQSKKIENDPDFYKIRDDTVRESLFEEWCGE	soluble
GAMGKVGVGKKAEAVATVVAAVDQARVREPREPGLPEDSYAQQTTLEYGYKEH	soluble
GAMSSKNEWRKSAIANTLLYLRLKNIYVSADDFVEEQNVYVLPKNLLKKFIEISDVKIQVAAFIYGMSAKDHPKVKEIKTVVLVPQLGHVGSVQISNIPDIGDLPDTEGLELLGWIHTQTEELKFMAASEVATHSKLFADKKRDCIDISIFSTPGSVSLSAYNLTDEGYQWGEENKDIMNVLSEGFEPTFSTHAQLLLSDRITGNFIIPSGNVWNYTFMGTAFNQEGDYNFKYGIPLEFYNEMHRPVHFLQFSE	soluble
GAMSVASLPECVKNFFPTEQLEFSSSITADEKPVLHEVFQKHSCFSQCGEMIDEVSKKHPELGKRLATVLEGNKKRLDGLSPAAVEYAKKLIHMVTTTLCSLTVGKPIDDADAKRLHQEFQSLSSEDQAALRKNNPDIKF	soluble
GAQVSTQKTGAHESIIHYTNINYYKDAASNSANRQDFTQDPGKFTEPVKDIMVKSLPALN	soluble
GDDNSYSLGDIWIAVATVVPEGNNVYYLRLDDGDKLWPAATNYPNYQPKPNQRALVNFTILADSTQSNLGGFSHYIKVNAIHNILTKSIAKNEGAANDSIYGTDPVSIYNNNMWIGDGYLNIYFETLWGGKTAHFINLIQPDAENDPYTLEFRHNAYDDPQYTIGAGRVAFNLSSLPDTKGETVDLVVNYWTSEGKQAYKLKYNSDKTKMEDTSQGYTNDSISNITDMK	soluble
GDYTTLTFRVSTHIEEAAPTSCPAEHPHTVAQGDYLIVAKSNRMSTGNDELGSILMRAFVNAIGELDRLPSHIILYNTGVLLAVEGTDTAETLAELNKKHGIPIIVCGTCADYYEVKDKLRIGTISNMYRIMQLQVATRHIIYP	not soluble
GGGPFIVVAHSQGSMIAYHVLRQLKKADCDVRLFITIGSPLGIQEAQDVLGKIGSGKPLAVPECVDRWLNVAERLDPVALDSDLGNDYQPNSHGVKIENHAGLMINPEWASNPHSGTGYLSLDIVRQAVRETAGPTFSNPVGRNILMKDLVDNIEDGHREQRHPTLIQLVSDDDDATSLDEVRDRLSNLIKNVL	not soluble
GGGQCYFIPNQSLKPNECQDLKGVSHPLNSVWKTKDCEECTCGQDAISCCNTAAIPTGYDTNKCQKILNKKTCTYTVVEKKDPGKTCDVTGWVL	soluble
GGHTVPKPFNLSKGKRKHEEASDYVSTAEQVIAFYKRTPARYHLRSRQREMEGPSPVKMIKTKLTNPKTPLLQTKGRHRPV	soluble
GGNLEEMNIDPDNATQTHPKLLLTQICMNAFKRGTDGMYATKKVIQADGESADQYYKWTRGSFGYYDNLRNVQKMGEEAERVNAPVYTALTKFFRAYYFYELTLRFGDIPYSQALKGEKEEIYTPEYDAQEDVFAGILQELREADEILANDASVIDGDIIYNGNSTQWRKLINSFRLKVLMTLSNHTTVGNINIASEFKNIATNSPLMNSLADNGQLVYLDQQGNRYPQFNAQWSGYYMDDTFIQRMRERRDPRLFIFSAQTNKGKTEGKPIDDFSSYEGGDPAAPYSDAIIKVSEGTISPINDRFRTDPIVEPTMLMGYAELQQILAEAVVRGWISGNAQTYYEKGIRASFSFYETHAKDYAGYLNENAVAQYLKEPLVDFTQASGTEEQIERIIMQKYLVTFYQGNWDSFYEQLRTGYPDFRRPAGTEIPKRWMYPQGEYDNNGTNVETAITRQFGAGNDKINQATWWQKKS	soluble
GGSGSDIEAYFERIGYKNSRNKLDLETLTDILEHQIRAVPFENLNMHCGQAMELGLEAIFDHIVRRNRGGWCLQVNQLLYWALTTIGFQTTMLGGYFYIPPVNKYSTGMVHLLLQVTIDGRNYIVDAGSGSSSQMWQPLELISGKDQPQVPCIFCLTEERGIWYLDQIRREQYITNKEFLNSHLLPKKKHQKIYLFTLEPRTIEDFESMNTYLQTSPTSSFITTSFCSLQTPEGVYCLVGFILTYRKFNYKDNTDLVEFKTLTEEEVEEVLKNIFKISLGRNLVPKPGDGSLTI	soluble
GHELSAIIPRSSWLAQKPMDEPLPLQLPVKYVVILHTATESSEKRAINVRLIRDMQSFHIESRGWNDIAYNFLVGCDGNIYEGRGWKTVGAHTLGYNRISLGISFIGCFMKELPTADALNMCRNLLARGVEDGHISTDYRLICHCQCNSTESPGRRLYEEIQTWPHFYNIEEEEQ	soluble
GHHHHHHAIAENLYFQSTGNAGEWCLMESDPGVFTELIKGFGCRGAQVEEIWSLEPENFEKLKPVHGLIFLFKWQPGEEPAGSVVQDSRLDTIFFAKQVINNACATQAIVSVLLNCTHQDVHLGETLSEFKEFSQSFDAAMKGLALSNSDVIRQVHNSFARQQMFEFDTKTSAKEEDAFHFVSYVPVNGRLYELDGLREGPIDLGACNQDDWISAVRPVIEKRIQKYSEGEIRFNLMAIVSDRKMIYEQKIAELQRQLAEEPMDTDQGNSMLSAIQSEVAKNQMLIEEEVQKLKRYKIENIRRKHNYLPFIMELLKTLAEHQQLIPLVEKAKEKQNAKKAQETK	not soluble
GHMAGNPPDPNAASTGTNPSPQAAGDISPEMMPETANIKLGYIPIVEAAPLIIAQEKGFFAKYGMTGVEVSKQANWASARDNVTIGSQGGGIDGGQWQMPMPHLITEGIITNGNKVPMYVLAQLITQGNGIAVAPMHEGKGVNLDITKAADYIKGFNKTNGRKFKAAHTFPNVNQDFWIRYWFAAGGVDPDTDIDLLAVPPAETVQGMRNGTMDAFSTGDPWPYRIVTENIGYMAGLTAQIWPYHPEEYLAIRADWVDKNPKATKALLKGIMEAQQWIDDPKNRPEVVQIVSGRNYFNVPTTILESPFKGQYTMGDGQPAIDDFQKGPLYWKDGIGNVSYPYKSHDLWFLTESIRWGFHKNAIPDLDTAQKIIDKVNREDLWREAATEAGFTADIPSSTSRGVETFFDGITFDPANPSAYLQSLAIKKV	soluble
GHNLSYSVSANLSNYDARITRYDNPEKVFAKSYYPGMKLGEIWGYHVDGLFASDEEAAQYSSQVDLGVVAKNLPQGTWRAGDLKFADLDGDGKISVGEDSALNPGDMKIIGNELPTLQYGFSGSLNYMGFDIYAFFQGTGNHYWYPNGYNYQFWGSFSDPVAGYIPRNFIDQCWSKDNPGAYFPRPLGQSAKNGQLSFVNDRYLQNIRYMRFKNLTIGYSIPGKILSKVSIQQLRVYFTAENLCYWSPIKKHSKYIDPEAAFSRSSNQLNAMYYPWAKTYMFGIDITL	not soluble
GIDPFTMLRPRLCTMKKGPSGYGFNLHSDKSKPGQFIRSVDPDSPAEASGLRAQDRIVEVNGVCMEGKQHGDVVSAIRAGGDETKLLVVDRETDEFFKKCRVIPSQEHLNGPLPVPFTNGEIQKENSREALAEAALESPRPALVRSASSDTSEELNSQDSPPKQDSTAPSSTSSSDPILDFNISLAMAKERAHQKRSSKRAPQMDWSKKNELFSNL	soluble
GINLTPEEKFEVFGDFDPDQYEEEVRERWGNTDAYRQSKEKTASYTKEDWQRIQDEADELTRRFVALMDAGEPADSEGAMDAAEDHRQGIARNHYDCGYEMHTCLGEMYVSDERFTRNIDAAKPGLAAYMRDAILANAVRHTP	soluble
GKNVMVEPHRHEGVFICRGKEDALVTKNLVPGESVYGEKRVSISEGDDKIEYRAWNPFRSKLAAAILGGVDQIHIKPGAKVLYLGAASGTTVSHVSDIVGPDGLVYAVEFSHRSGRDLINLAKKRTNIIPVIEDARHPHKYRMLIAMVDVIFADVAQPDQTRIVALNAHTFLRNGGHFVISIKANCIDSTASAEAVFASEVKKMQQENMKPQEQLTLEPYERDHAVVVGVYRP	soluble
GKRLGIFTHDNPDPDSMSSAYALREIAKQFDVIADILYYGEILHQKNRAMVNLLEIPMIRAPEVDLSHYDAFAIVDSSGPGVNNSIPPDIDISIVIDHHPAEKVVAEFVDLREDVGATATILTEYIKELKITPSKILATALFFGIKSETDEFKRNTRTADFLACAFLYPFVDQDLIEKIESPSI	not soluble
GLGDAGSTPTTSAADGVPSDTSLTGSGGLHLPQQLEQYRGDIMDAAKATGVPPSVIAGQIWAESRGQLNAATTNVNGKADAGLMQVNADTFKSLQQQNPGLLGNDVNDSHTNIMAGALYLRDQNKEFGDMGAALRAYNSGPDKVNKADLSDTGGVGGSSYPADVLNFAKIIESGQGNLPA	not soluble
GLSDRYQRVKKLGSGAYGEVLLCKDKLTGAERAIKIIKKSSVTTTSNSGALLDEVAVLKQLDHPNIMKLYEFFEDKRNYYLVMEVYRGGELFDEIILRQKFSEVDAAVIMKQVLSGTTYLHKHNIVHRDLKPENLLLESKSRDALIKIVDFGLSAHFEVGGKMKERLGTAYYIAPEVLRKKYDEKCDVWSCGVILYILLCGYPPFGGQTDQEILKRVEKGKFSFDPPDWTQVSDEAKQLVKLMLTYEPSKRISAEEALNHPWIVKFCSQKHTDVGKHALTGALGNMKKFQSSQKLAQAAMLFMGSKLTTLEETKELTQIFRQLDNNGDGQLDRKELIEGYRKLMQWKGDTVSDLDSSQIEAEVDHILQSVDFDRNGYIEYSEFVTVCMDKQLLLSRERLLAAFQQFDSDGSGKITNEELGRLFGVTEVDDETWHQVLQECDKNNDGEVDFEEFVEMMQKICDVKVKH	soluble
GMADLTHEFWDRLEDVRSGMLGIKGQGRLIPMSPQTDDDAPGAIWFITAKGTDLAKGVAAGPQPAQFVVSDDGEGLYADLDGTLERSTDREALDEFWSFVADAWFDGGQHDPDVCLLKFTPASGEISITEGGGARFLYEIAKAHLTDETPDMGEQATVTF	soluble
GMAEPKFTSFTTADFINDVDMELFIDAVEKTAPVWVKEMKSRGLLKFSMNRVWNKGEVFRVVMTYEYKDRASFEANIAYLEDTFGKNPVFLQLVTTAKFTTSRCLVVMEV	soluble
